Data as given in patent US9046519 (RSR, dated 2015).

B1: TSHR Asp232 to Ala, Arg255 to Ala and Trp258 to Ala (receptor)
chain: GMGCSSPPCECHQEEDFRVTCKDIQRIPSLPPSTQTLKLIETHLRTIPSHAFSNLPNISRIYVSIDVTLQQLESHSFYNLSKVTHIEIRNTRNLTYIDPDALKELPLLKFLGIFNTGLKMFPDLTKVYSTDIFFILEITDNPYMTSIPVNAFQGLCNETLTLKLYNNGFTSVQGYAFNGTKLDAVYLNKNKYLTVIDKDAFGGVYSGPSLLAVSQTSVTALPSKGLEHLKELIAANTATLKKLPLSLSFLHLTRADLSYPSHCCAFKNQKKIRGILESLMCNESSMQSLRQRKSVNALNSPLHQEYEENLGDSIVGYKEKSKFQDTHNNAHYYVFFEEQEDEIIGFGQELKNPQEETLQAFDSHYDYTICGDSEDMVCTPKSDEFNPCEDIMGYKFLRIVVWFVSLLALLGNVFVLLILLTSHYKLNVPRFLMCNLAFADFCMGMYLLLIASVDLYTHSEYYNHAIDWQTGPGCNTAGFFTVFASELSVYTLTVITLERWYAITFAMRLDRKIRLRHACAIMVGGWVCCFLLALLPLVGISSYAKVSICLPMDTETPLALAYIVFVLTLNIVAFVIVCCCYVKIYITVRNPQYNPGDKDTKIAKRMAVLIFTDFICMAPISFYALSAILNKPLITVSNSKILLVLFYPLNSCANPFLYAIFTKAFQRDVFILLSKFGICKRQAQAYRGQRVPPKNSTDIQVQKVTHEMRQGLHNMEDVYELIENSHLTPKKQGQISEEYMQTVL
notes: whole, on cells; as m1
B2: TSHR Arg255 to Ala, Trp258 to Ala and Tyr185 to Ala (receptor)
chain: GMGCSSPPCECHQEEDFRVTCKDIQRIPSLPPSTQTLKLIETHLRTIPSHAFSNLPNISRIYVSIDVTLQQLESHSFYNLSKVTHIEIRNTRNLTYIDPDALKELPLLKFLGIFNTGLKMFPDLTKVYSTDIFFILEITDNPYMTSIPVNAFQGLCNETLTLKLANNGFTSVQGYAFNGTKLDAVYLNKNKYLTVIDKDAFGGVYSGPSLLDVSQTSVTALPSKGLEHLKELIAANTATLKKLPLSLSFLHLTRADLSYPSHCCAFKNQKKIRGILESLMCNESSMQSLRQRKSVNALNSPLHQEYEENLGDSIVGYKEKSKFQDTHNNAHYYVFFEEQEDEIIGFGQELKNPQEETLQAFDSHYDYTICGDSEDMVCTPKSDEFNPCEDIMGYKFLRIVVWFVSLLALLGNVFVLLILLTSHYKLNVPRFLMCNLAFADFCMGMYLLLIASVDLYTHSEYYNHAIDWQTGPGCNTAGFFTVFASELSVYTLTVITLERWYAITFAMRLDRKIRLRHACAIMVGGWVCCFLLALLPLVGISSYAKVSICLPMDTETPLALAYIVFVLTLNIVAFVIVCCCYVKIYITVRNPQYNPGDKDTKIAKRMAVLIFTDFICMAPISFYALSAILNKPLITVSNSKILLVLFYPLNSCANPFLYAIFTKAFQRDVFILLSKFGICKRQAQAYRGQRVPPKNSTDIQVQKVTHEMRQGLHNMEDVYELIENSHLTPKKQGQISEEYMQTVL
notes: whole, on cells; as m1
B3: TSHR Arg255 to Ala, Trp258 to Ala, Tyr185 to Ala and Lys183 to Ala (receptor)
chain: GMGCSSPPCECHQEEDFRVTCKDIQRIPSLPPSTQTLKLIETHLRTIPSHAFSNLPNISRIYVSIDVTLQQLESHSFYNLSKVTHIEIRNTRNLTYIDPDALKELPLLKFLGIFNTGLKMFPDLTKVYSTDIFFILEITDNPYMTSIPVNAFQGLCNETLTLALANNGFTSVQGYAFNGTKLDAVYLNKNKYLTVIDKDAFGGVYSGPSLLDVSQTSVTALPSKGLEHLKELIAANTATLKKLPLSLSFLHLTRADLSYPSHCCAFKNQKKIRGILESLMCNESSMQSLRQRKSVNALNSPLHQEYEENLGDSIVGYKEKSKFQDTHNNAHYYVFFEEQEDEIIGFGQELKNPQEETLQAFDSHYDYTICGDSEDMVCTPKSDEFNPCEDIMGYKFLRIVVWFVSLLALLGNVFVLLILLTSHYKLNVPRFLMCNLAFADFCMGMYLLLIASVDLYTHSEYYNHAIDWQTGPGCNTAGFFTVFASELSVYTLTVITLERWYAITFAMRLDRKIRLRHACAIMVGGWVCCFLLALLPLVGISSYAKVSICLPMDTETPLALAYIVFVLTLNIVAFVIVCCCYVKIYITVRNPQYNPGDKDTKIAKRMAVLIFTDFICMAPISFYALSAILNKPLITVSNSKILLVLFYPLNSCANPFLYAIFTKAFQRDVFILLSKFGICKRQAQAYRGQRVPPKNSTDIQVQKVTHEMRQGLHNMEDVYELIENSHLTPKKQGQISEEYMQTVL
notes: whole, on cells; as m1
B4: TSHR Trp258 to Ala, Lys183 to Ala and Tyr185 to Ala (receptor)
chain: GMGCSSPPCECHQEEDFRVTCKDIQRIPSLPPSTQTLKLIETHLRTIPSHAFSNLPNISRIYVSIDVTLQQLESHSFYNLSKVTHIEIRNTRNLTYIDPDALKELPLLKFLGIFNTGLKMFPDLTKVYSTDIFFILEITDNPYMTSIPVNAFQGLCNETLTLALANNGFTSVQGYAFNGTKLDAVYLNKNKYLTVIDKDAFGGVYSGPSLLDVSQTSVTALPSKGLEHLKELIARNTATLKKLPLSLSFLHLTRADLSYPSHCCAFKNQKKIRGILESLMCNESSMQSLRQRKSVNALNSPLHQEYEENLGDSIVGYKEKSKFQDTHNNAHYYVFFEEQEDEIIGFGQELKNPQEETLQAFDSHYDYTICGDSEDMVCTPKSDEFNPCEDIMGYKFLRIVVWFVSLLALLGNVFVLLILLTSHYKLNVPRFLMCNLAFADFCMGMYLLLIASVDLYTHSEYYNHAIDWQTGPGCNTAGFFTVFASELSVYTLTVITLERWYAITFAMRLDRKIRLRHACAIMVGGWVCCFLLALLPLVGISSYAKVSICLPMDTETPLALAYIVFVLTLNIVAFVIVCCCYVKIYITVRNPQYNPGDKDTKIAKRMAVLIFTDFICMAPISFYALSAILNKPLITVSNSKILLVLFYPLNSCANPFLYAIFTKAFQRDVFILLSKFGICKRQAQAYRGQRVPPKNSTDIQVQKVTHEMRQGLHNMEDVYELIENSHLTPKKQGQISEEYMQTVL
notes: whole, on cells; as m1
B5: TSHR Arg255 to Ala, Lys183 to Ala and Tyr185 to Ala (receptor)
chain: GMGCSSPPCECHQEEDFRVTCKDIQRIPSLPPSTQTLKLIETHLRTIPSHAFSNLPNISRIYVSIDVTLQQLESHSFYNLSKVTHIEIRNTRNLTYIDPDALKELPLLKFLGIFNTGLKMFPDLTKVYSTDIFFILEITDNPYMTSIPVNAFQGLCNETLTLALANNGFTSVQGYAFNGTKLDAVYLNKNKYLTVIDKDAFGGVYSGPSLLDVSQTSVTALPSKGLEHLKELIAANTWTLKKLPLSLSFLHLTRADLSYPSHCCAFKNQKKIRGILESLMCNESSMQSLRQRKSVNALNSPLHQEYEENLGDSIVGYKEKSKFQDTHNNAHYYVFFEEQEDEIIGFGQELKNPQEETLQAFDSHYDYTICGDSEDMVCTPKSDEFNPCEDIMGYKFLRIVVWFVSLLALLGNVFVLLILLTSHYKLNVPRFLMCNLAFADFCMGMYLLLIASVDLYTHSEYYNHAIDWQTGPGCNTAGFFTVFASELSVYTLTVITLERWYAITFAMRLDRKIRLRHACAIMVGGWVCCFLLALLPLVGISSYAKVSICLPMDTETPLALAYIVFVLTLNIVAFVIVCCCYVKIYITVRNPQYNPGDKDTKIAKRMAVLIFTDFICMAPISFYALSAILNKPLITVSNSKILLVLFYPLNSCANPFLYAIFTKAFQRDVFILLSKFGICKRQAQAYRGQRVPPKNSTDIQVQKVTHEMRQGLHNMEDVYELIENSHLTPKKQGQISEEYMQTVL
notes: whole, on cells; as m1

Target: porcine TSH (RSR Ltd, 70 units per mg) (porcine, UniProt P01219 25-120; P01224 21-132)
Assay: Scatchard, 125I-ligand, solubilised TSHR on tubes

Binding result, no binding:
B1
B2
B3
B4
B5
